Results taken from US7563582 (Sanofi, dated 2009).

Biological target: T1, GST-zyxin(1-142) (UniProt Q15942 1-142)
T1 construct: Expressed in E. coli; also called zyxin derivative; GST fusion protein with the N-terminus of zyxin; not shown: glutathione S-transferase
T1 sequence (looked up): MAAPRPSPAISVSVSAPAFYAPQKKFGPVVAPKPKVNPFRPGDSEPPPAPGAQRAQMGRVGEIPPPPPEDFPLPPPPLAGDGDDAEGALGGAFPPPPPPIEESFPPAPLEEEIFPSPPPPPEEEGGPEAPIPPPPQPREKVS
Test: solid-phase assay (DELFIA) in 384-well plates, 20 µl per well, GST-zyxin(1-142) coated, VASP as ligand
Method: In the solid-phase assay, a binding partner (VASP or zyxin) was immobilized on the surface of a microtiter plate (MTP) (=coating). The unsaturated binding sites on the surface of the plastic were blocked, and the surface was then incubated with the respective other binding partners. After the incubation, excess unattached protein was removed in a washing step. Using suitable antibodies, it was now possible to detect and quantify the specifically bound protein. Here, it was possible to improve the signal-noise (S/N) ratio considerably by using lanthanide chelates as fluorescent labels for the antibodies and the measurement of the time-resolved fluorescence.
The volume per well used depended on the selected MTP format (50 µl or 100 µl for 96-well plates, 20 µl for 384-well plates).

B1: recombinant human VASP protein with complete amino acid sequence obtained from insect cells (other, UniProt P50552 2-380, looked up)
chain: SETVICSSRATVMLYDDGNKRWLPAGTGPQAFSRVQIYHNPTANSFRVVGRKMQPDQQVVINCAIVRGVKYNQATPNFHQWRDARQVWGLNFGSKEDAAQFAAGMASALEALEGGGPPPPPALPTWSVPNGPSPEEVEQQKRQQPGPSEHIERRVSNAGGPPAPPAGGPPPPPGPPPPPGPPPPPGLPPSGVPAAAHGAGGGPPPAPPLPAAQGPGGGGAGAPGLAAAIAGAKLRKVSKQEEASGGPTAPKAESGRSGGGGLMEEMNAMLARRRKATQVGEKTPKDESANQEEPEARVPAQSESVRRPWEKNSTTLPRMKSSSSVTTSETQPCTPSSSDYSDLQRVKQELLEEVKKELQKVKEEIIEAFVQELRKRGSP
notes: mature; also called baculo VASP; vasodilator-stimulated phosphoprotein
Binder B1 has a S/N ratio of about 100.
